Data taken from patent publication US9328334B2, “Luciferase derived from lucidina accensa” (OLYMPUS CORPORATION, priority 2011, dated 2016).
Numbering of substitutions follows the chain as printed. Names and notes keep the numbering of the source. “Also recorded” adds a separate entry of the source.

B1: P. pyralis luciferase: existing luciferase derived from Photinus pyralis (SEQ ID NO: 33) (protein, listed as Photinus pyralis)
chain: MEDAKNIKKGPAPFYPLEDGTAGEQLHKAMKRYALVPGTIAFTDAHIEVDITYAEYFEMSVRLAEAMKRYGLNTNHRIVVCSENSLQFFMPVLGALFIGVAVAPANDIYNERELLNSMGISQPTVVFVSKKGLQKILNVQKKLPIIQKIIIMDSKTDYQGFQSMYTFVTSHLPPGFNEYDFVPESFDRDKTIALIMNSSGSTGLPKGVALPHRTACVRFSHARDPIFGNQIIPDTAILSVVPFHHGFGMFTTLGYLICGFRVVLMYRFEEELFLRSLQDYKIQSALLVPTLFSFFAKSTLIDKYDLSNLHEIASGGAPLSKEVGEAVAKRFHLPGIRQGYGLTETTSAILITPEGDDKPGAVGKVVPFFEAKVVDLDTGKTLGVNQRGELCVRGPMIMSGYVNNPEATNALIDKDGWLHSGDIAYWDEDEHFFIVDRLKSLIKYKGYQVAPAELESILLQHPNIFDAGVAGLPDDDAGELPAAVVVLEHGKTMTEKEIVDYVASQVTTAKKLRGGVVFVDEVPKGLTGKLDARKIREILIKAKKGGKIAV
B2: mutant luciferase (N50D and I530R): L. accensa luciferase mutant with N50D and I530R, amino acid sequence SEQ ID NO: 2 (protein, listed as Lucidina accensa)
chain: MEEDKNILRGPAPFYPLEDGTAGEQLHRAMKRYALIPGTIAFTDAHAGVDITYSEYFEMACRLAESLKRYGLGLQHRIVVCSENSLQFFMPVVGALFIGVGVAPANDIYNERELLNSMTISQPTLVFCSRKGLQKILNVQKKLPVIQKIIILDTKEDYMGFQSMYSFVDSQLPVGFNEYDYVPDSFDRDQATALIMNSSGSTGLPKGVELNHTSVCVRFSHCRDPVYGNQIIPDTAILSVIPFHHGFGMFTTLGYLICGFRVVLMYRFEEELFLRSLQDYKIQSALLVPTLFSFFAKSTLIDKYDLSNLHEIASGGAPLAKEVGEAVAKRFNLRGIRQGYGLTETTSAVIITPEGDDKPGAVGKVVPFFSAKVVDLDTGKTLGVNQRGELCLKGPMIMKGYVNNPEATNALIDKDGWLHSGDISYWDEDGHFFIVDRLKSLIKYKGYQVPPAELESILLQHPFIFDAGVAGIPDDEAGELPAAVVVLEEGKTMTEKEIMDYVAGQVTTAKRLRGGVVFVDEVPKGLTGKRDARKIREILVKVKKTKSKL
B3: L. Biplagiata (literature sequence): luciferase derived from L. biplagiata, sequence disclosed in the literature (Oba et al. 2010), lysine at position 249 (protein, listed as Lucidina biplagiata)
chain: B2 chain with P13A, D50N, N211T, Y227F, M249K, R530L, V542A
B4: mutant luciferase (F294Y, V323L, and E354V): L. accensa luciferase mutant with F294Y, V323L and E354V, amino acid sequence SEQ ID NO: 34 (protein, listed as Lucidina accensa)
chain: B2 chain with D50N, F294Y, V323L, E354V, R530I
B5: mutant luciferase (E322W): L. accensa luciferase mutant with E322W, amino acid sequence SEQ ID NO: 36 (protein, listed as Lucidina accensa)
chain: B2 chain with D50N, E322W, R530I

Key:
HeLa cell = assay: Luminescence intensity of luciferase expressed in HeLa cell, comparison with P. pyralis luciferase (Example 3); format: cell-based; settings: 2 mM D-luciferin, 25° C., 90 min after starting measurement
Protocol: Each of the wild type luciferase derived from L. accensa, the mutant luciferase derived from L. accensa (N50D and 1530R), and the luciferase derived from P. pyralis (SEQ ID NO: 33) was expressed in a HeLa cell, and the luminescence intensity was measured and compared to each other.
Further, since the pF9A vector contains the luciferase gene derived from Renilla reniformis as an internal control, it is possible to obtain the luminescence intensity from the luminescent gene inserted to the multicloning site as a ratio compared to the luminescence intensity emitted by the Renilla luciferase.
Three types of plasmids obtained in such a manner described above were each subjected to gene transfection to a HeLa cell, which has been inoculated in a 24-well plate, by a lipofection method, and 24 hours later, the cells were washed with PBS. To each well of a 24-well plate, 500 μL of 2 mM D-luciferin/CO2 Independent Medium (manufactured by Invitrogen) was added and the luminescence intensity was measured for 90 min by using a Luminescensor (manufactured by ATTO Corporation) under the condition including 25° C. and 1 sec per each well. The luminescence intensity which is obtained at the time point of 90 min after starting the measurement was taken as the luminescence intensity of the wild type luciferase, the mutant luciferase, and P. pyralis luciferase. […] Subsequently, 500 μL of 10 μM coelenterazine/CO2 Independent Medium was added to each well and the luminescence intensity was measured for 30 min by using a Luminescensor under the condition including 25° C. and 1 sec per each well. The luminescence intensity obtained at five minutes after the addition of coelenterazine was taken as luminescence intensity of the Renilla luciferase, which is an internal control. Each of the luminescence intensity from the wild type luciferase, the mutant luciferase, and P. pyralis luciferase was divided by the luminescence intensity of the Renilla luciferase, and the results are illustrated as a graph illustrating the luminescence intensity of each luciferase.

HeLa cells = assay: Luminescence intensity of luciferase expressed in HeLa cells, comparison with L. biplagiata luciferase (Example 5); format: cell-based; settings: 2 mM D-luciferin, 37° C., 90 min
From the text: The luminescence intensity from the light emitting reaction using the wild type luciferase derived from L. accensa (SEQ ID NO: 1) was compared to the luminescence intensity from the light emitting reaction using the luciferase derived from L. biplagiata having the literature sequence (SEQ ID NO: 30) or the luciferase derived from L. biplagiata having the cloned sequence (SEQ ID NO: 31). Further, based on the difference between the literature sequence and the cloned sequence, the amino acid residue at position 249 of the amino acid sequence of the wild type luciferase, i.e., methionine, was changed to lysine to prepare the mutant luciferase (M249K), which was then used for the intensity measurement.
With regard to the four types of the luciferase, a nucleic acid containing a gene optimized for mammalian cell expression was given with a Kozak sequence, and then inserted between SgfI and PmeI sites within the multicloning site of pF9A CMV hRLuc neo Flexi vector (manufactured by Promega). Further, since the pF9A vector contains the luciferase gene derived from Renilla reniformis as an internal control in the vector sequence, it is possible to obtain the luminescence intensity from the luminescent gene inserted to the multicloning site as a ratio compared to the luminescence intensity emitted by the Renilla luciferase.
Four types of luciferase plasmids obtained in such a manner described above were each subjected to gene transfection to HeLa cells inoculated in a 48-well plate by a lipofection method, and 24 hours later, the cells were washed with PBS. To each well of a 48-well plate, 500 μL of 2 mM D-luciferin/CO2 Independent Medium (manufactured by Invitrogen) was added and the luminescence intensity was measured for 90 min by using a Luminescensor (manufactured by ATTO Corporation) under the condition including 37° C. and 1 sec per each well. The luminescence intensity which is obtained at the time point of 90 min after starting the measurement was taken as the luminescence intensity of each luciferase. […] Subsequently, 500 μL of 10 μM coelenterazine/CO2 Independent Medium was added to each well and the luminescence intensity was measured for 30 min by using a Luminescensor under the condition including 37° C. and 1 sec per each well. The luminescence intensity obtained at five minutes after the addition of coelenterazine was taken as luminescence intensity of the Renilla luciferase, which is an internal control. Each of the luminescence intensities from the luciferases was divided by the luminescence intensity of the Renilla luciferase, yielding the luminescence intensity of each luciferase. The measurements were carried out multiple times for each luciferase, and the luminescence intensity was obtained as a mean value.

[1] = Stability against degradation: SDS-polyacrylamide gel electrophoresis of lysate of E. coli expressing each luciferase (Example 4); settings: lysate of E. coli BL21 (DE3) CodonPlus expressing the luciferase
Protocol: Stability against degradation was determined for the wild type luciferase derived from L. accensa in comparison with a known luciferase derived from L. biplagiata.
The above three genes were introduced into an expression vector and expressed in E. coli. The expression was carried out in the same manner as the Example 2 except that BL21 (DE3) CodonPlus (manufactured by Stratagene Corporation) was used as E. coli strain and the cells were cultured appropriately.
The lysate was prepared from the E. coli expressing each gene, and then subjected to SDS-polyacrylamide gel electrophoresis. It was confirmed that, as a band with the biggest size, a single band is present near 70 kDa for all three kinds of protein. […] Meanwhile, in the luciferase derived from L. biplagiata (i.e., left and right lanes), several bands with a size smaller than 70 kDa were identified.

[2] = Measurement of light emission spectra of purified luciferase under various pH environments; format: biochemical; settings: light emission spectra at various pH
Protocol: With use of LumiFlSpectroCapture (manufactured by ATTO Corporation) as an apparatus for measurement, to a solution of 0.1 M citric acid/0.1 M Na2HPO4 buffer (pH 5.5 to 8.0) containing 1 mM of D-luciferin, 2 mM of ATP and 4 mM of MgCl2 the purified enzyme was added at a final concentration of 1 μg/mL, and after 15 seconds of addition of the enzyme luminescence spectra was measured. The measurement results were illustrated in FIG. 1.
After that, each of thus-prepared genes (SEQ ID NOs: 38 and 39) was introduced into pRSET-B vector according to the same method as the Example 2. This vector was transformed to E. coli JM109 (DE3) strain to express the mutant luciferase. Subsequently, the mutant luciferase was purified from E. coli. In addition, under various pH environments, the light emission spectrum was measured according to the same method as the Example 2 from a light emitting reaction catalyzed by the mutant luciferase.

[3] = tested on: E. coli JM109 (DE3) strain; assay: Temperature dependency of luminescence intensity: E. coli colonies heat treated at 55° C., CCD image (Example 7); format: cell-based, Escherichia coli; settings: 55° C. for 1 hour, 0.5 mM D-luciferin spray
Protocol: Each of the wild type luciferase gene and two kinds of the mutant gene obtained in the Example 6 was introduced into pRSET-B vector and transformed to E. coli JM109 (DE3) strain to form a colony. Thus-obtained colony was cultured and applied on a LB agar medium to form again the colony for 24 hours. After that, it was subjected to the heat treatment at 55° C. for 1 hour and kept at room temperature for 1 hour. It was then sprayed with a liquid containing 0.5 mM D-luciferin and a photographic image thereof was taken for 1 min by using a CCD camera (trade name: DP70, manufactured by Olympus Corporation).

Molecule | luminescence intensity (divided by luminescence intensity of Renilla luciferase internal control) (HeLa cell) | pH environment giving the highest luminescence intensity [2] [pH] | light emission compared to the wild type luciferase at 55° C. [3] | other results
B1 | 6.6 |  |  | 
B2 | 26.5 |  |  | 
B3 |  |  |  | luminescence intensity, mean value (divided by Renilla luciferase intensity) (HeLa cells): 0.12; stability against protein degradation (bands on stained SDS-PAGE gel) [1]: stained in a smear shape in the region of 70 kDa or less
B4 |  | 7.4 | stronger light emission; also recorded: higher luminescence intensity | 
B5 |  | 8.0 | stronger light emission; also recorded: higher luminescence intensity | 
